Laboratory results from doi:10.1101/2023.01.23.525191.
Several values for one entry are separate records, joined by “and”; a condition that tells them apart may be missing. Identical values can stand only once.

What was measured:
[1] = molecular target: recombinant untagged rat RBPMS-A ΔC20 (rat); assay: cross-linking
[2] = molecular target: recombinant untagged rat RBPMS-A ΔC20 (rat); assay: AUC
[3] = molecular target: recombinant untagged rat RBPMS-A ΔC20 (rat); assay: AUC; remark: listed apart in the source
[4] = molecular target: recombinant untagged rat RBPMS-A ΔC20 (rat); assay: SEC

stoichiometry N [1]: 3 and 4 | stoichiometry N [2]: 2 | stoichiometry N [3]: 2 and 3 | stoichiometry N [4]: 2
Substance: recombinant untagged rat RBPMS-A ΔC20 (domain or fragment)
